Data from the supplement of paper PMC5998384.

System: HeLa Kyoto
Assay: melting temperature (median over replicates), in situ; higher = more thermally stable
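Also: HeLa Kyoto cells synchronized by double thymidine or nocodazole block, proteins quantified by TMT10plex mass spectrometry, three independent biological replicates.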

“MPFRLLIPLGLLCALLPQHHGAPGPDGSAPDPAHYRERVKAMFYHAYDSYLENAFPFDELRPLTCDGHDTWGSFSLTLIDALDTLLILGNVSEFQRVVEVLQDSVDFDIDVNASVFETNIRVVGGLLSAHLLSKKAGVEVEAGWPCSGPLLRMAEEAARKLLPAFQTPTGMPYGTVNLLHGVNPGETPVTCTAGIGTFIVEFATLSSLTGDPVFEDVARVALMRLWESRSDIGLVGNHIDVLTGKWVAQDAGIGAGVDSYFEYLVKGAILLQDKKLMAMFLEYNKAIRNYTRFDDWYLWVQMYKGTVSMPVFQSLEAYWPGLQSLIGDIDNAMRTFLNYYTVWKQFGGLPEFYNIPQGYTVEKREGYPLRPELIESAMYLYRATGDPTLLELGRDAVESIEKISKVECGFATIKDLRDHKLDNRMESFFLAETVKYLYLLFDPTNFIHNNGSTFDAVITPYGECILGAGGYIFNTEAHPIDPAALHCCQRLKEEQWEVEDLMREFYSLKRSRSKFQKNTVSSGPWEPPARPGTLFSPENHDQARERKPAKQKVPLLSCPSQPFTSKLALLGQVFLDSS [EDEM2]” showed a melting temperature (cell cycle stage: G1/S) of 55.3 °C.

In the case of “MAELQMLLEEEIPGGRRALFDSYTNLERVADYCENNYIQSADKQRALEETKAYTTQSLASVAYLINTLANNVLQMLDIQASQLRRMESSINHISQTVDIHKEKVARREIGILTTNKNTSRTHKIIAPANLERPVRYIRKPIDYTILDDIGHGVKWLLRFKVSTQNMKMGGLPRTTPPTQKPPSPPMSGKGTLGRHSPYRTLEPVRPPVVPNDYVPSPTRNMAPSQQSPVRTASVNQRNRTYSSSGSSGGSHPSSRSSSRENSGSGSVGVPIAVPTPSPPSVFPAPAGSAGTPPLPATSASAPAPLVPATVPSSTAPNAAAGGAPNLADGFTSPTPPVVSSTPPTGHPVQFYSMNRPASRHTPPTIGGSLPYRRPPSITSQTSLQNQMNGGPFYSQNPVSDTPPPPPPVEEPVFDESPPPPPPPEDYEEEEAAVVEYSDPYAEEDPPWAPRSYLEKVVAIYDYTKDKEDELSFQEGAIIYVIKKNDDGWYEGVMNGVTGLFPGNYVESIMHYSE [ABI2]”, the melting temperature (cell cycle stage: G1/S) is reported as 52.3 °C and the melting temperature (cell cycle stage: mitosis) is reported as 52.5 °C.

For “MLQQDSNDDTEDVSLFDAEEETTNRPRKAKIRHPVASFFHLFFRVSAIIVCLLCELLSSSFITCMVTIILLLSCDFWAVKNVTGRLMVGLRWWNHIDEDGKSHWVFESRKESSQENKTVSEAESRIFWLGLIACSVLWVIFAFSALFSFTVKWLRRSRHIAQTGLKVLGSRDPPASAFQSAGITGVSRCPGHPSRKFHQVDINSFTRITDRALYWKPAPRLSSPPLRAAPGNCQQMAPARLFLSLRLWAWRGGGESPNSRGTGEPGPKFHLASGMH [TVP23C]”, the melting temperature (cell cycle stage: mitosis) was 56 °C.

Work on “MPSSLPGSQVPHPTLDAVDLVEKTLRNEGTSSSAPVLEEGDTDPWTLPQLKDTSQPWKELRVAGRLRRVAGSVLKACGLLGSLYFFICSLDVLSSAFQLLGSKVAGDIFKDNVVLSNPVAGLVIGVLVTALVQSSSTSSSIVVSMVAAKLLTVRVSVPIIMGVNVGTSITSTLVSMAQSGDRDEFQRAFSGSAVHGIFNWLTVLVLLPLESATALLERLSELALGAASLTPRAQAPDILKVLTKPLTHLIVQLDSDMIMSSATGNATNSSLIKHWCGTTGQPTQENSSCGAFGPCTEKNSTAPADRLPCRHLFAGTELTDLAVGCILLAGSLLVLCGCLVLIVKLLNSVLRGRVAQVVRTVINADFPFPLGWLGGYLAVLAGAGLTFALQSSSVFTAAVVPLMGVGVISLDRAYPLLLGSNIGTTTTALLAALASPADRMLSALQVALIHFFFNLAGILLWYLVPALRLPIPLARHFGVVTARYRWVAGVYLLLGFLLLPLAAFGLSLAGGMELAAVGGPLVGLVLLVILVTVLQRRRPAWLPVRLRSWAWLPVWLHSLEPWDRLVTRCCPCNVCSPPKATTKEAYCYENPEILASQQL [SLC34A3]” yielded a melting temperature (cell cycle stage: mitosis) of 57.5 °C.

Work on “MEALLLGAGLLLGAYVLVYYNLVKAPPCGGMGNLRGRTAVVTGANSGIGKMTALELARRGARVVLACRSQERGEAAAFDLRQESGNNEVIFMALDLASLASVRAFATAFLSSEPRLDILIHNAGISSCGRTREAFNLLLRVNHIGPFLLTHLLLPCLKACAPSRVVVVASAAHCRGRLDFKRLDRPVVGWRQELRAYADTKLANVLFARELANQLEATGVTCYAAHPGPVNSELFLRHVPGWLRPLLRPLAWLVLRAPRGGAQTPLYCALQEGIEPLSGRYFANCHVEEVPPAARDDRAAHRLWEASKRLAGLGPGEDAEPDEDPQSEDSEAPSSLSTPHPEEPTVSQPYPSPQSSPDLSKMTHRIQAKVEPEIQLS [DHRS13]” yielded a melting temperature (cell cycle stage: mitosis) of 50 °C.
